Test results taken from the supplement of paper PMC12764529.
± gives the half width of the 95% confidence interval.

Assay: folding stability dG unfold from trypsin proteolysis; higher = more stable
In short: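 Sequencing followed digestion of designed mini-proteins with trypsin and chymotrypsin, each at 11 concentrations in threefold dilutions together with a no-protease condition. The mini-proteins were under 80 residues, had no cysteine, sat in a PA-tagged cDNA display construct, and were kept only if AlphaFold2 dimer inter-PAE was above 15. From the counts, Bayesian fitting gave K50, and unfolding free energy was derived against a sequence-predicted unfolded-state K50 and a shared folded-state K50, per protease or combined.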
With “SAGGMEVVEIKYDPETGTVTVTVAIPESLSFDEVAPEVEALVKEKTGRPVEITVDPATGTVTATVPRSAGGS [r8_314_JUSTAS]” the “folding stability dG unfold” value was 0.832 ± 0.031 kcal/mol.
With “SAGGALDAIKNIAEKFGFPEIEDIDIDPDNGWLSFRFRGPEPVYIKIPWKPDKNGNLPVNIEVYPMDDSAGG [r13_410_TrROS]” the “folding stability dG unfold” value was 1.48 ± 0.041 kcal/mol.
For “SMTYSYGVDVSEDPNSDKTTATITTTSSDGSSSLSPEEVAAELAAEAKAAGYTVDVELRPGSVTITVTAPSA [r9_510_JUSTAS]”, the “folding stability dG unfold” value was 0.464 ± 0.018 kcal/mol.
With “SMVTSETRETVTVTLPDGTVVTVTVTTHRPADGVPTATVTVTTTSADGTPTTSTHTFPAAEAPALIAAALSA [r9_189_JUSTAS]” the “folding stability dG unfold” value was 2.84 ± 0.13 kcal/mol.
With “SAGWRQILDMARNMLENGHMFRIEWTGPGGKPQEFRIPLDDIETLLDNWPDPDDIRSVDIEVYPPGEPISAG [r5_957_TrROS]” the “folding stability dG unfold” value was 1.72 ± 0.021 kcal/mol.
In the case of “SAGGSAGGSMKVEITKVEPETGPNGRPYYRVEVKVIGEDGSPYTFTFYFEKPSDIENAKISLDSAGGSAGGS [r20_130_TrMRF]”, the “folding stability dG unfold” value is reported as 2.67 ± 0.19 kcal/mol.
In the case of “SAGGMTLITIEHPDGEVIEFELPGATEEEAEAIAEEIAKRHDPGKVKVTFEKVPEKGVDPTKPVAVKSAGGS [r8_167_JUSTAS]”, the “folding stability dG unfold” value is reported as -0.128 ± 0.073 kcal/mol.
With “SAGGSAGGSWKPIPYKIKMTDGDGEKHEFPVQIWVAPEDGWVFIDFPNGHPFWIPANNIKIEPSAGGSAGGS [r12_256_TrROS]” the “folding stability dG unfold” value was 0.66 ± 0.062 kcal/mol.
In the case of “SAGGFEEKVKAGEEVVDVVAPITLPDGTEAVVTRVEPVDDGLLVTLRPPWTGEEVELPLPASEIPKLPSAGG [r13_340_JUSTAS]”, the “folding stability dG unfold” value is reported as 1.1 ± 0.057 kcal/mol.
In the case of “SAMPIQIMVERDPDDGYIKVTIMFRSDSPEEAYELIETLFENLGVEVNIERYPEEGYFMIEVEIRLPPGSAG [r14_424_TrROS]”, the “folding stability dG unfold” value is reported as 3.45 ± 0.23 kcal/mol.
In the case of “SAGGSPPNITYELTFPDGTVYTDPLPGKSLEELKEYVKSLNFTNVEVTVYEESSEVSTYKVTIPPNESAGGS [r16_700_JUSTAS]”, the “folding stability dG unfold” value is reported as 0.169 ± 0.079 kcal/mol.
For “SAGGSAKIEIPIMIPMPPGQEFDLKIRIPNLWKIKIERIYVSPDPGWIMFRIEIEPVAPPNDPEQMSAGGSA [r15_994_TrROS]”, the “folding stability dG unfold” value was 2.92 ± 0.17 kcal/mol.
With “SAGSGPGETKLVEEVEIDPVGPIKDSNGNPRPIKVVTKKLVEVTILEDGTVEKKVLETVVETLPPDVPLSAG [r5_132_JUSTAS]” the “folding stability dG unfold” value was -0.498 ± 0.23 kcal/mol.
For “SAGGSAGMPPDEPVVKTTVIPTSTAVKDAAGNPLTPEELAAAVKAAYPDVEVSFGPGNTLTITLTRSAGGSA [r15_645_JUSTAS]”, the “folding stability dG unfold” value was 1.33 ± 0.059 kcal/mol.
In the case of “SAGGSAGGKKPPKIKVIYIKADSPEALKKLKIKAKPGDTILIYVDGKLYRLTVIDGKIKIEELPSAGGSAGG [r6_550_TrROS_Hall]”, the “folding stability dG unfold” value is reported as 2.12 ± 0.089 kcal/mol.
In the case of “SAGGSAGGSSSATLAADETATLRFRVTLTFGSGVRSGTADLSGSVSATVEVDVEIEVRNLADDSAGGSAGGS [r12_668_TrMRF]”, the “folding stability dG unfold” value is reported as 3.32 ± 0.056 kcal/mol.
With “SAGGSAGGPIVLKFPSPEDLEKAIEIATAHGYEIELNPESGTLVINATGPMLEEFKKIPGLEISSAGGSAGG [r6_724_TrMRF]” the “folding stability dG unfold” value was 2.73 ± 0.12 kcal/mol.
With “SAGGSAGGSAGGSYEVKEETEPKTGLKITTTTLPDGTIETTTINPATGEVTTTTSSPLESAGGSAGGSAGGS [r10_127_JUSTAS]” the “folding stability dG unfold” value was 1.34 ± 0.072 kcal/mol.
For “SMPVGVEELAERLAEEIEKELSEKTGVPVKVEKITVEEDPATGTVTVTITLYLPDGKKIREESLTVPVLESA [r9_60_JUSTAS]”, the “folding stability dG unfold” value was 1.59 ± 0.051 kcal/mol.
For “SAGGRYWKLTTPPDRPLRLVIEPVPLEDTPEEYGSRLYIPNTGKVYYFPLKYAQEILDLPWIERLEPVSAGG [r19_302_TrMRF]”, the “folding stability dG unfold” value was 0.903 ± 0.096 kcal/mol.
For “SSPLINILTVEVTAETPSGGSFSKTFTFPASKYTEEEIREKIKEEYPDLTDIKITPKVTKIPPGPKILLASA [r9_841_JUSTAS]”, the “folding stability dG unfold” value was 1.29 ± 0.07 kcal/mol.
In the case of “SAGGSAGGMTVTFTLPATAPENALENVTATVTYNGKTYLVKITATPVPDGPFVVVTAELVEYDPSAGGSAGG [r6_415_TrMRF]”, the “folding stability dG unfold” value is reported as 3.02 ± 0.083 kcal/mol.
In the case of “SAGGSAGGMTITLRIKITNPDGEEKEIEVELELPEELKGKTLEELAAELAKALLPPGAKVEVEPSAGGSAGG [r6_821_TrROS_Hall]”, the “folding stability dG unfold” value is reported as 1.73 ± 0.048 kcal/mol.
With “SAGGSAGGSAGGSAGVIVSLSPAPPSADTVVELPKGVTVTVTTVNGERVLTTLVPEALLSAGGSAGGSAGGS [r10_355_JUSTAS]” the “folding stability dG unfold” value was 0.365 ± 0.013 kcal/mol.
For “SAGGSAGGSAAEASVVTFPGDLTAEVTKLPDGSYAVTVTFPENPGATATLTRTPDSVTVTPSAGGSAGGSAG [r3_170_JUSTAS]”, the “folding stability dG unfold” value was 0.0476 ± 0.058 kcal/mol.
With “SASKRFVFPVLGDEQTITVDVPEDYYVRITVFFPDGSEPILIPPNEKVTITVPRKDAFVVIEVFPKNEESAG [r14_882_TrMRF]” the “folding stability dG unfold” value was 2.59 ± 0.077 kcal/mol.
For “SAGGSMERTVELTYTFKDKPIKITITVTTDPETGTVTVPIEIETEDEKIKEPALEKAKELAEELLASAGGSA [r2_259_JUSTAS]”, the “folding stability dG unfold” value was 0.133 ± 0.065 kcal/mol.
In the case of “SAGGSAGGSAKPLKKLVLLLKVKGPFEEVEKILNEEFGVKKIVAFKDPETDEVYALIYLGDPSAGGSAGGSA [r18_275_TrMRF]”, the “folding stability dG unfold” value is reported as 2.23 ± 0.052 kcal/mol.
For “SMKVIIIERPDESGVPVVIVLPEEEALELYRKLFNVPMSVEEFAEKLKELNPNVKVEVVPLEEVSEEVLLSA [r9_1085_JUSTAS]”, the “folding stability dG unfold” value was 2.23 ± 0.086 kcal/mol.
With “SAGGSASMKIRVYTISLYRPDGESVRDVPIVVPENEPDVDPEALAKAIADELGLVKVEISEEIVPLSAGGSA [r15_333_JUSTAS]” the “folding stability dG unfold” value was 0.589 ± 0.097 kcal/mol.
For “SAGGSAGGWIPPEMARNIAKTLRDKGWPVEDIEVEREPNGWVTVDVDIQYPDGKKRKYPIQIPYSAGGSAGG [r6_762_TrROS]”, the “folding stability dG unfold” value was -0.439 ± 0.22 kcal/mol.
